# B1: Arabidopsis thaliana benzaldehyde synthase (AtBS), recombinant heterodimer AtBSα (SEQ ID NO: 5) / AtBSβ (SEQ ID NO: 8), wild type, MBP-tagged (Arabidopsis … (protein)
# chain 1: MSNHQTQVLKLLEPWCELKDKVVLVTGASSGIGREICLDLAKAGCQVIAAARRVDRLNSLCSEINSFSSTGIQAAALELDVSSDAATIQKAVREAWDIFGKIDALINNAGIRGNVKSSLDLSEDEWDNVFKTNLKGPWLVSKHVCMLMRDAKRGGSVINISSIAGIRGMLPGGLAYACSKGGVDTMSRMMALELGVHKIRVNSIAPGLFKSEITQGLMQKEWLKNVTERTVPLKVQQTVDPGLTSLVRYLIHDSSQYISGNTYIVDSGATLPGVPIFSSL
# chain 2: MENPAKRVLMTSNGDEVSRNIAFHLAKHGCKLVMMGNEGSLRSIVDKIRDSIEGAFPADVIALDMESDSEVAFHAAVQKAWELSGHFDAFLNSYTYQGKVQDILQVSQDEFHRITKINLTAPWFLLKAVATRMKDHGSGGSIVFMATIASGERALYPGADAYASTSAAIHQLVRASAMSLGKHKIRVNMISRGLHLDDEYTASVGRDRAQKLVKDAAPLGQWLNPDTDLYSTVIYLISDGSRFMTGTTVLVDGAQSLTRPRLKSYM
# notes: full-length CDS from flower cDNA
# Substrate: CC(C)(COP(=O)(O)OP(=O)(O)OC[C@H]1O[C@@H](n2cnc3c(N)ncnc32)[C@H](O)[C@@H]1OP(=O)(O)O)[C@@H](O)C(=O)NCCC(=O)NCCSC(=O)c1ccccc1
# Experiment: purified protein, by the assay type
# Assay type: biochemical, Arabidopsis thaliana
# Conditions: other: apparent, measured at 4 mM NADPH, pH 6.5, 28° C.
# Experimental: The reaction was initiated by adding a protein and incubated at 28° C. for 30 minutes, and the reactions were then terminated by adding 100 μL of 100% ice-cold methanol (MeOH). The BS enzyme assays were performed at an appropriate enzyme concentration so that reaction velocity was proportional to enzyme concentration and linear during the incubation time period. Km and Vmax were determined by non-linear fit to the Michaelis-Menten equation using Graphpad Prism, v8.2.0.
# Triplicate assays were performed for all data points.
# After centrifugation at 15,000 g for 20 minutes, 5 μL of the supernatant were subjected to high-performance liquid chromatography (HPLC) analysis using an Agilent 1260 Infinity II system (Agilent Technologies, Inc., Santa Clara, CA) equipped with an InfinityLab Poroshell 120 EC-C18 column (3.0×150 mm, 2.7 μm) maintained at 35° C. Products were separated with a 15-minute linear gradient of 10% aqueous acetonitrile solution to 100% acetonitrile and monitored at 248 nm using a diode array detector (DAD). Benzaldehyde was identified by comparing the retention time and absorption spectrum with authentic standard.
# Quantitation was achieved by using standard curve generated from authentic standard and product verification was performed by GC-MS.
# Recombinant BS proteins were produced in E. coli by expressing the corresponding coding regions (CDS) subcloned into an expression vector pMAL-c5X (New England BioLabs, Ipswich, MA) containing a maltose binding protein (MBP) tag using ClonExpress II One Step Cloning Kit (Vazyme Biotech Co., Piscataway, NJ).
# After sequence verification, the desired plasmids were transformed into Rosetta2 (DE3) pLysS competent cells (MilliporeSigma, Burlington, MA). Single colonies were picked and cultured overnight in 2 ml LB medium containing 100 mg/L carbenicillin and 34 mg/L chloramphenicol at 37° C. Overnight cultures were then diluted 100-fold with LB medium and continued to culture at 37° C. until OD600 reached ˜0.5.
# After cooling the cell culture on ice for 10 minutes, isopropyl β-D-1-thiogalactopyranoside (IPTG) was added to a final concentration of 0.1 mM and cells were incubated at 28° C. with shaking for additional 2.5 to 3 hours. After harvesting cells by centrifugation, their lysis and protein purification were performed according to the manufacturer's protocol of Amylose Resin (New England Biolabs, Ipswich, MA).
protein,measurement,value
B1,Km,242.8 ± 28.2 µM
same,Vmax,0.864 µmol/min/mg
same,kcat,2.12 ± 0.08 s⁻¹
same,kcat/Km,8700 ± 1100 M⁻¹ s⁻¹

# From US20250034601A1, “HETERODIMERIC BENZALDEHYDE SYNTHASE, METHODS OF PRODUCING, AND USES THEREOF” (Purdue Research Foundation, priority 2021, published 2025)
